According to article PMC4167924:

Biological target: adaptor protein 1A complex (AP-1A; γ/β1/μ1A/σ1), endogenous, mouse (mouse (endogenous in pituitary and in AtT-20)) (UniProt P22892)
Assay: co-IP

UniProt P22892, sequence (P22892 whole entry, chain 1 of 4): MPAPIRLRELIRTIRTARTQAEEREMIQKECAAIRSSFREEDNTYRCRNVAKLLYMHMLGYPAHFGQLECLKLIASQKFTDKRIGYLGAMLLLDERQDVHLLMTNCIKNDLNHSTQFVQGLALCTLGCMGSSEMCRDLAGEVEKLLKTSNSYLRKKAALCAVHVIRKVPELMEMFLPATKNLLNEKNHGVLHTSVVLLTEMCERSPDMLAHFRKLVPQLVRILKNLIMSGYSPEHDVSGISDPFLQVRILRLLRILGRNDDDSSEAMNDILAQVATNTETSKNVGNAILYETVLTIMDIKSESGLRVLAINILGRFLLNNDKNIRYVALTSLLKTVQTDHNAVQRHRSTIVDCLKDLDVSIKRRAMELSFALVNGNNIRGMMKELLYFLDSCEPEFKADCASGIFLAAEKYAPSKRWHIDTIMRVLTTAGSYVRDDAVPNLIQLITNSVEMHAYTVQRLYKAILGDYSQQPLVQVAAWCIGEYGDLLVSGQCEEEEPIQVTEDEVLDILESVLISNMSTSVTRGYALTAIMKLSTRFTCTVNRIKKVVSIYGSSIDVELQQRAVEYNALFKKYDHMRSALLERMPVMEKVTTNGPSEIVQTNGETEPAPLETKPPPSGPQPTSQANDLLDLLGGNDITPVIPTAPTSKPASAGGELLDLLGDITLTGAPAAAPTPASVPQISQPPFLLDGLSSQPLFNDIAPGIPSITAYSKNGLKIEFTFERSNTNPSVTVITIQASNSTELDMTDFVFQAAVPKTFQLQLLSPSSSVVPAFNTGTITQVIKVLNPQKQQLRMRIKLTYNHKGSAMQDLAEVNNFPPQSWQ
UniProt P22892, sequence (O35643 whole entry, chain 2 of 4, further chain): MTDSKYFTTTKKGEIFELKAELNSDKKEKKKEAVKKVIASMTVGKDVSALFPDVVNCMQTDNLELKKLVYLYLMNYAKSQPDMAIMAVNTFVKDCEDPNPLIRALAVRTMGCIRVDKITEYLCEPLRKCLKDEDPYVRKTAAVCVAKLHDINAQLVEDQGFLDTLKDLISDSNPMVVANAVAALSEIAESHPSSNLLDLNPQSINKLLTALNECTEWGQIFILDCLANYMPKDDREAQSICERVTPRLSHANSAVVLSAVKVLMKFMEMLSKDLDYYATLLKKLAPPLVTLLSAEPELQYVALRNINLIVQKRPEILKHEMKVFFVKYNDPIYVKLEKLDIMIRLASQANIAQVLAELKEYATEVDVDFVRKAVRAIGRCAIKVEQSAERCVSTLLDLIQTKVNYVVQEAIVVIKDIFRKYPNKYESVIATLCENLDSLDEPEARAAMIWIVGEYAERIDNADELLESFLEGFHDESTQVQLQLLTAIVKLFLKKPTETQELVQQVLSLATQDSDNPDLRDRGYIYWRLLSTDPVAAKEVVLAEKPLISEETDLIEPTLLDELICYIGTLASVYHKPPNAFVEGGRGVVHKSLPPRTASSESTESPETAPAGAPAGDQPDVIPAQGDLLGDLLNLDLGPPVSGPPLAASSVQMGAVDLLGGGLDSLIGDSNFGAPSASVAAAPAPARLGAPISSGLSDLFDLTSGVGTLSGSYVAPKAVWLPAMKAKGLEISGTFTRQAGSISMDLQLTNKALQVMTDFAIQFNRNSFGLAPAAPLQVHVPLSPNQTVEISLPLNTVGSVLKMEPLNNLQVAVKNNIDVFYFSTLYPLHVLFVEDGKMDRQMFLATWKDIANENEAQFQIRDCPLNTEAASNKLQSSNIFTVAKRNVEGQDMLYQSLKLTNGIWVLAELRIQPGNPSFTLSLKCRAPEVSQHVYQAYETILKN
UniProt P22892, sequence (P35585 whole entry, chain 3 of 4, further chain): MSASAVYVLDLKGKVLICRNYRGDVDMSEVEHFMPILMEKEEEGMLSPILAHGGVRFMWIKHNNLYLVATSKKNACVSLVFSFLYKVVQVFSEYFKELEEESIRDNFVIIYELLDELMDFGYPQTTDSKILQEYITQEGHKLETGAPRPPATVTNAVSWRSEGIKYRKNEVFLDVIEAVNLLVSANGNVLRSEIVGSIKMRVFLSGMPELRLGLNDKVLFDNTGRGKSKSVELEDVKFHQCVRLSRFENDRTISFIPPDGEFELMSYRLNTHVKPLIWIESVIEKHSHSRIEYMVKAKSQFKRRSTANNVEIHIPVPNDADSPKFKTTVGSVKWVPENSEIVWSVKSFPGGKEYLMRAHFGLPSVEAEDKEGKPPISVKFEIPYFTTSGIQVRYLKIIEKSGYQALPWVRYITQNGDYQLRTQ
UniProt P22892, sequence (P61967 whole entry, chain 4 of 4, further chain): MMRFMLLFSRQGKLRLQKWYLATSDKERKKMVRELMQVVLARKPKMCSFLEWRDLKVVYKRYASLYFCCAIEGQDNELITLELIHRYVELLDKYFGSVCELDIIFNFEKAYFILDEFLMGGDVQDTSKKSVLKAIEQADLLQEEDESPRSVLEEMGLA

B1: peptidylglycine α-amidating monooxygenase-1 (PAM-1), endogenous in mouse pituitary (natural protein)
chain: FKETTRSFSNECLGTTRPITPIDSSDFTLDIRMPGVTPKESDTYFCMSMRLPVDEEAFVIDFKPRASMDTVHHMLLFGCNMPSSTGSYWFCDEGTCTDKANILYAWARNAPPTRLPKGVGFRVGGETGSKYFVLQVHYGDISAFRDNHKDCSGVSLHLTRVPQPLIAGMYLMMSVNTVIPPGEKVVNSDISCHYKMYPMHVFAYRVHTHHLGKVVSGYRVRNGQWTLIGRQSPQLPQAFYPVEHPVDVAFGDILAARCVFTGEGRTEATHIGGTSSDEMCNLYIMYYMEAKHAVSFMTCTQNVAPDMFRTIPEEANIPIPVKSDMVMIHGHHKETENKEKSALIQQPKQGEEEAFEQGDFYSLLSKLLGEREDVVHVHKYNPTEKTESGSDLVAEIANVVQKKDLGRSDAREGAEHEEGGNAILVRDRIHKFHRLESTLRPAESRALSFQQPGEGPWEPELAGDFHVEEALEWPGVYLLPGQVSGVALDSKNNLVIFHRGDHVWDGNSFDSKFVYQQRGLGPIEEDTILVIDPNKAEILQSSGKNLFYLPHGLSIDTDGNYWVTDVALHQVFKLEPRSKEGPLLVLGRSMQPGSDQNHFCQPTDVAVEPSTGAVFVSDGYCNSRIVQFSPSGKFITQWGEESSGSSPKPGQFSVPHSLALVPHLNQLCVADRENGRIQCFKTDTKEFVREIKHASFGRNVFAISYIPGFLFAVNGKPYFGDQEPVQGFVMNFSSGEIIDVFKPVRKHFDMPHDIVASEDGTVYIGDAHTNTVWKFTLTESRLEVEHRSVKKAGIEVPEIKEAEAVVEPKVKNKPTSSELQKMQEKKKLIKDPGSGVPVVLITTLLVIPVVVLLAIAMFIRWKKSRAFGDHDRKLESSSGRVLGRLRGKGSSGLNLGNFFASRKGYSRKGFDRVSTEGSDQEKDEDDGSESEEEYSAPLPTPAPSS
With B1 as the binder, how does the percent of PAM-1 co-immunoprecipitated read?
The percent of PAM-1 co-immunoprecipitated was 3%.

B2: PAM-1, stably expressed in AtT-20 cells (natural protein)
chain: FKETTRSFSNECLGTIGPVTPLDASDFALDIRMPGVTPKESDTYFCMSMRLPVDEEAFVIDFKPRASMDTVHHMLLFGCNMPSSTGSYWFCDEGTCTDKANILYAWARNAPPTRLPKGVGFRVGGETGSKYFVLQVHYGDISAFRDNHKDCSGVSVHLTRVPQPLIAGMYLMMSVDTVIPPGEKVVNADISCQYKMYPMHVFAYRVHTHHLGKVVSGYRVRNGQWTLIGRQNPQLPQAFYPVEHPVDVTFGDILAARCVFTGEGRTEATHIGGTSSDEMCNLYIMYYMEAKYALSFMTCTKNVAPDMFRTIPAEANIPIPVKPDMVMMHGHHKEAENKEKSALMQQPKQGEEEVLEQGDFYSLLSKLLGEREDVHVHKYNPTEKTESGSDLVAEIANVVQKKDLGRSDAREGAEHEEWGNAILVRDRIHRFHQLESTLRPAESRAFSFQQPGEGPWEPEPSGDFHVEEELDWPGVYLLPGQVSGVALDSKNNLVIFHRGDHVWDGNSFDSKFVYQQRGLGPIEEDTILVIDPNNAEILQSSGKNLFYLPHGLSIDTDGNYWVTDVALHQVFKLDPHSKEGPLLILGRSMQPGSDQNHFCQPTDVAVEPSTGAVFVSDGYCNSRIVQFSPSGKFVTQWGEESSGSSPRPGQFSVPHSLALVPHLDQLCVADRENGRIQCFKTDTKEFVREIKHASFGRNVFAISYIPGFLFAVNGKPYFGDQEPVQGFVMNFSSGEIIDVFKPVRKHFDMPHDIVASEDGTVYIGDAHTNTVWKFTLTEKMEHRSVKKAGIEVQEIKEAEAVVEPKVENKPTSSELQKMQEKQKLSTEPGSGVSVVLITTLLVIPVLVLLAIVMFIRWKKSRAFGDHDRKLESSSGRVLGRFRGKGSGGLNLGNFFASRKGYSRKGFDRVSTEGSDQEKDEDDGTESEEEYSAPLPKPAPSS
For B2, which percent of PAM-1 co-immunoprecipitated is on record?
The percent of PAM-1 co-immunoprecipitated was 2%.
